Test results: patent US20160051704A1, “MOLECULAR IMAGING PROBES FOR LUNG CANCER INTRAOPERATIVE GUIDANCE” (H. Lee Moffitt Cancer Center and Research Institute, Inc., priority 2013, published 2016)

Target: T1, delta opioid receptor (δOR) on HCT-116/δOR cells, P41143
T1 chain: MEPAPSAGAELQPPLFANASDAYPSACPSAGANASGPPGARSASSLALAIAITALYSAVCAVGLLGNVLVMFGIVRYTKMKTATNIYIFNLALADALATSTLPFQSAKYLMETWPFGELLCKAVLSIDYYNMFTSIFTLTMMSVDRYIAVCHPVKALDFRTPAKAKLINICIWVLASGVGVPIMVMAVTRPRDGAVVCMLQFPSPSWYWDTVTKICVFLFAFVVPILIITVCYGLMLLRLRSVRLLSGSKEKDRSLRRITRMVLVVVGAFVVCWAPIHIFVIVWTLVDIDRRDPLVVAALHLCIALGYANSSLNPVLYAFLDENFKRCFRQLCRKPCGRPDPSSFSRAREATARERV
Experiment: in cyto time-resolved fluorescence saturation binding on HCT-116/δOR cells

B1: Europium (Eu)-diethylenetriaminepentaacetic acid (DTPA)[D-Pen2, L-Cys5] enkephalin (DPLCE) (peptide)
chain: YCGFC
modifications: not checked
Question: Which Bmax does the source give for B1 here?
Answer: 3.01e+06 AFU
